From US20210395390A1

Legend:
[1] = target: anti-FXIa antibody 076D-M007-H04-CDRL3-N110D; assay: ELISA, 076D-M007-H04-CDRL3-N110D coated at 1 µg/ml, anti-human lambda light chain-peroxidase detection
[2] = target: anti-FXIa antibody 076D-M007-H04-CDRL3-N110D; assay: cell-based or functional assay

Binder | EC50 [1] [nM] | Neutralizing activity, IC50 (biochemical FXIa assay) [2] [nM] | aPTT 1.5 X [2] [µM] | aPTT 1.5 X (EC150) [2] [µM] | biochemical FXIa assay IC 50 [2] [nM] | plasma based FXIa assay, IC50 [2] [nM] | plasma based assay IC 50 [2] [nM] | Neutralizing activity (biochemical FXIa assay) (% inhibition at 1.00E-06 M) [2]
TPP-8243 (antibody, human IgG1, lambda, V domains shown) VH: EVQLLESGGGLVQPGGSLRLSCAASGFTFSNYGIHWVRQAPGKGLEWVSAIGTGGDTYYADSVMGRFTISRDNSKNTLYLQMNSLRAEDTAVYYCARDRGYYDILTGLYDYWGQGTLVTVSS VL: QSVLTQPPSASGTPGQRVTISCSGSSSNIGNNAVNWYQQLPGTAPKLLIYGNYHRPSGVPDRFSGSKSGTSASLAISGLRSEDEADYYCSSYAGSNNWVFGGGTKLTVLG | 0.256 | 1.13 | 0.3 | 0.3 | 1.1 | 5 | 5 | –
TPP-8246 (antibody, human IgG1, lambda, V domains shown) VH: EVQLLESGGGLVQPGGSLRLSCAASGFTFSSYSMNWVRQAPGKGLEWVSTISGSGGITHYADSVKGRFTISRDNSKNTLYLQMNSLRAEDTAVYYCARDRGNRVAARPAFDYWGQGTLVTVSS VL: QSVLTQPPSASGTPGQRVTISCTESSSNTGAGYDVHWYQQLPGTAPKLLIYGNTNRPSGVPDRFSGSKSGTSASLAISGLRSEDEADYYCASWDDNLGGWVFGGGTKLTVLG | 0.477 | > 1000 | – | – | – | – | – | –
TPP-8238 (antibody, human IgG1, lambda, V domains shown) VH: EVQLLESGGGLVQPGGSLRLSCAASGFTFSSYSMNWVRQAPGKGLEWVASISGSGANTYFADTVKGRFTISRDNSKNTLYLQMNSLRAEDTAMYYCARHGQVRLNYGSPTTVYNWFDRWGQGTLVTVSS VL: QSVLTQPPSASGTPGQRVTISCTGSSSNIGAGYDVHWYQQLPGTAPKLLIYGNSNRPSGVPDRFSGSKSGTSASLAISGLRSEDEADYYCAAWHDSLNGWVFGGGTKLTVLG | 0.485 | – | – | – | – | – | – | 75
TPP-8236 (antibody, human IgG1, lambda, V domains shown) VH: EVQLLESGGGLVQPGGSLRLSCAASGFTFSDYYMNWVRQAPGKGLEWVSTISGTGAAAFYADSVRGRFTISRDNSKNTLYLQMNSLRAEDTAVYYCARDQYLTGGAFDIWGQGTLVTVSS VL: QSVLTQPPSASGTPGQRVTISCSGSSSNIGNNAVNWYQQLPGTAPKLLIYGNSNRPSGVPDRFSGSKSGTSASLAISGLRSEDEADYYCSSYRGSSTLVVFGGGTKLTVLG | 0.484 | > 1000 | – | – | – | – | – | –
TPP-8240 (antibody, human IgG1, lambda, V domains shown) VH: EVQLLESGGGLVQPGGSLRLSCAASGFTFSSYAMSWVRQAPGKGLEWVAVISYDGSNKHYADSVKGRFTISRDNSKNTLYLQMNSLRAEDTAVYYCARDSMVRGKIFDYWGQGTLVTVSS VL: QSVLTQPPSASGTPGQRVTISCSGSSSNIGNNAVNWYQQLPGTAPKLLIYEDNKRPSGVPDRFSGSKSGTSASLAISGLRSEDEADYYCMIWHSSAWVFGGGTKLTVLG | 0.216 | > 1000 | – | – | – | – | – | –
